From patent publication US20250049939A1, “NOVEL FLT3 ANTIBODIES AND ANTIBODY-DRUG-CONJUGATES BASED THEREON, THERAPEUTIC METHODS AND USES THEREOF IN COMBINATION WITH TYROSINE KINASE INHIBITORS” (TUBULIS GmbH, priority 2021, published 2025)

T1: human wildtype FLT3 (hFLT3 wt) (Homo sapiens, UniProt P36888)
T1 construct: expressed in transfected cells; host or cells: Ba/F3 cells, retrovirally transduced with MSCV-IRES-YFP (pMIY) vector
T1 sequence (P36888 27-993): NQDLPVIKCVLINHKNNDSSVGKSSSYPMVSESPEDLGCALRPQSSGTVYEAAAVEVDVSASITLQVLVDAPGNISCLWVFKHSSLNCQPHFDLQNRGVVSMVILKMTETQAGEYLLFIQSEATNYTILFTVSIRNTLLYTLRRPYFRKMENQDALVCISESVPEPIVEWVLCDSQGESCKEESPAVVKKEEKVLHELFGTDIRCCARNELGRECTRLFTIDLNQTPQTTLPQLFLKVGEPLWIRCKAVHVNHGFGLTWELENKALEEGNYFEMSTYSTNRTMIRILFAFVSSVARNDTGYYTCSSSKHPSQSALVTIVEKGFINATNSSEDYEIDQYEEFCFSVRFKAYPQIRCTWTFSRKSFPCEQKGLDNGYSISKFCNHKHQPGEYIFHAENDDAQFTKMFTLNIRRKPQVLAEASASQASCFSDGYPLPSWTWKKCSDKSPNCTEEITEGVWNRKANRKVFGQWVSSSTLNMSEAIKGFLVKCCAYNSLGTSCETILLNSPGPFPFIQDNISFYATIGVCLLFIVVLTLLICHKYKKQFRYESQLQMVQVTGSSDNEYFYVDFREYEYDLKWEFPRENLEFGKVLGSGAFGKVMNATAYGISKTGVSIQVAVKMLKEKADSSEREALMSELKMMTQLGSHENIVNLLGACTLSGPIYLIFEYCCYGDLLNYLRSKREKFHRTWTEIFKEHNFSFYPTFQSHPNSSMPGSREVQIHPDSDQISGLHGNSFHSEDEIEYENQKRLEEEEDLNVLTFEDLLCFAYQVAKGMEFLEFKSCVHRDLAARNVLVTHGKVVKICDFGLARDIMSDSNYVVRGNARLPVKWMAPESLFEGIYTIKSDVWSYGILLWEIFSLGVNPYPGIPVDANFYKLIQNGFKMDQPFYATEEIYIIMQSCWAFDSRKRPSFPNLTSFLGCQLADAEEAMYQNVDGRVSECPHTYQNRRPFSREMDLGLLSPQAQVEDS


Legend:
[1] = target: T1, human wildtype FLT3 (hFLT3 wt); assay: Cell surface binding to Ba/F3 hFLT3 wt, flow cytometry
Procedure: (§1) For antibody binding studies, cells were stained on ice with primary mouse, rat or human anti-FLT3 antibodies (in house) and secondary antibody Goat F(ab′)2 Anti-Human Ig-PE (2012-09), Goat Anti-Mouse IgG (H+L)-PE (1032-09) or Goat Anti-Rat IgG (H+L)-PE (3052-09) purchased from Southern Biotech. For internalization experiments, cells incubated with anti-FLT3 antibodies were washed and incubated for 30 min at 4° C. or 37° C. followed by staining with secondary antibody.
(§2) For FLT3 expression analysis, cells were stained on ice with primary mouse anti-FLT3-AF647 antibodies for 30 min. For antibody binding studies, cells were stained on ice with chimeric (20D9) or humanized anti-FLT3 antibodies (in house) or IgG1 control with or without Leu234Ala/Leu235Ala (LALA)-mutation in the Fc region and secondary antibody goat F(ab′)2 Anti-Human IgG-AF647 (2042-31) purchased from Southern Biotech for 30 min, respectively. Binding and expression were subsequently measured at the flow cytometer (BD FACSCanto II) and the results were evaluated with FlowJo version 10.8.1.

[2] = tested on: cynomolgus monkey FLT3; assay: Cell surface binding to Ba/F3 cynoFLT3, flow cytometry
Procedure: as §1
Murine FLT3 (OMu21985D, Genescript), human CD64 (RC207487), CD32 (RC205786) and CD16 (RC206429), were purchased from Origene. Cynomolgues monkey FLT3 gene was synthesized from XM_015439107.1 by Eurofins. The constructs were cloned into retroviral expression vector MSCV-IRES-YFP (pMIY) using the In-Fusion HD Cloning Plus Kit (Takara Bio, Saint-Germain-en-Laye, France). All FLT3 point mutations were generated using the QuikChange II XL Site-Directed Mutagenesis Kit (Agilent Technologies, Santa Clara, CA, USA) and correct sequence was confirmed by Sanger sequencing. MSCV-IRES-YFP vectors with inserted human wildtype FLT3 and ITD (w51 and NPOS) mutated FLT3 has been described before (e.g., Opatz S, Polzer H, Herold T, et al. Exome sequencing identifies recurring FLT3 N676K mutations in core-binding factor leukemia. Blood. 2013; 122 (10): 1761-1769. doi: 10.1182/blood-2013-01-476473).
as §2

[3] = tested on: MOLM-13 (FLT3 positive) cells; assay: Temperature induced internalization in MOLM-13, flow cytometry; assay type: cell-based, human; conditions: 30 min at 37° C. compared to 4° C.
Procedure: as §1

| Molecule | Binding to Ba/F3-FLT3 cell line by flow cytometry [1] | Binding to cynomolgus monkey FLT3 expressing Ba/F3 cell lines [2] | Cross reactivity for cyno [2] | Internalization in MOLM-13 [3] |
| --- | --- | --- | --- | --- |
| 20D9: chimeric (rat variable regions, human IgG1) anti-FLT3 monoclonal antibody; VH SEQ ID NO: 5, VL SEQ ID NO: 6 (antibody, V domains shown, Clone 20D9, heavy chain variable region without a signal seqeunce; Clone 20D9, light chain variable region without a signal seqeunce) VH: DVMLVESGGGLVQPGRSLKLSCVASGFTFNNYWMTWIRQAPGKGLEWIASITKTGGGTYYPDSVKGRFTISRDNAKSTLYLQMNSLRSEDTATYYCTTLQQLGVMDAWGQGASVTVSSA VL: DVQMTQSPSVLSASVGDRITLNCKASQNINKELNWYQQKLGEAPKLLIYNTNNLQTGIPSRFSGSGSGTDYTLTISSLQPEDVATYFCFQHKSWPLTFGSGTKLEIKR | specifically bound | bound | cross-reactive and yes | 64% |
| 4B12: chimeric anti-FLT3 antibody from rat; VH SEQ ID NO: 9, VL SEQ ID NO: 10 (antibody, V domains shown, Clone 4B12, heavy chain variable region without a signal sequence; Clone 4B12, light chain variable region without a signal seqeunce) VH: QVQLQQSGPGLVQPSQTLSLTCTVSGFSLTSYNVNWVRQPPGKGLEWIGAMWRGGGTDYNPALKSRLSISRDTSKSQVFLKMNRLQTEDTAIYFCTRGFGDYWGQGVMVTVSSA VL: DIQMTQTPLSLSVAIGQSASISCKSSQSLKYSDGKTYLNWVFQSPGQSPKRLIYQVSKLDSGVPDRFSGTGSETDFTLKISRVEAEDLGVYYCCQGSYSPSTFGAGTKLELKR | specifically bound |  | cross-reactive and yes | 58% |
